These results are taken from IntAct's records for PubMed 22505024.

B1: ERBB receptor feedback inhibitor 1 (Homo sapiens), Q9UJM3 (parent)
chain: MSIAGVAAQEIRVPLKTGFLHNGRAMGNMRKTYWSSRSEFKNNFLNIDPITMAYSLNSSAQERLIPLGHASKSAPMNGHCFAENGPSQKSSLPPLLIPPSENLGPHEEDQVVCGFKKLTVNGVCASTPPLTPIKNSPSLFPCAPLCERGSRPLPPLPISEALSLDDTDCEVEFLTSSDTDFLLEDSTLSDFKYDVPGRRSFRGCGQINYAYFDTPAVSAADLSYVSDQNGGVPDPNPPPPQTHRRLRRSHSGPAGSFNKPAIRISNCCIHRASPNSDEDKPEVPPRVPIPPRPVKPDYRRWSAEVTSSTYSDEDRPPKVPPREPLSPSNSRTPSPKSLPSYLNGVMPPTQSFAPDPKYVSSKALQRQNSEGSASKVPCILPIIENGKKVSSTHYYLLPERPPYLDKYEKFFREAEETNGGAQIQPLPADCGISSATEKPDSKTKMDLGGHVKRKHLSYVVSP
partner: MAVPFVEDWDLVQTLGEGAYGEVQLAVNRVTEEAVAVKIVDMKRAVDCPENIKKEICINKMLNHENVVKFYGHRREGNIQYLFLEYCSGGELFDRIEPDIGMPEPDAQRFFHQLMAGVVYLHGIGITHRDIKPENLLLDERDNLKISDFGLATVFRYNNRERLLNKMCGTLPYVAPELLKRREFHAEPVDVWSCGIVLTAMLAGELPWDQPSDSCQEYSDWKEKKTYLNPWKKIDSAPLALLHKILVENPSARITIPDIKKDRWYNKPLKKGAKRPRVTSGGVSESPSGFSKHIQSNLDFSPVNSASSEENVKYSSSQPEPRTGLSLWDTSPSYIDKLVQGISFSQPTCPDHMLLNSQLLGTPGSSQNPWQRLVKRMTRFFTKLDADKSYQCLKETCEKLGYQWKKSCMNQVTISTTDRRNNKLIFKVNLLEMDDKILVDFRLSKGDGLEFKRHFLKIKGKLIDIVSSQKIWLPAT

Variants of B1 are the subject of one test. To be noted: with chk1_human CHEK1, O14757.
Turning to MSIAGVAAQEIRVPLKTGFLHNGRAMGNMRKTYWSSRSEFKNNFLNIDPITMAYSLNSSAQERLIPLGHASKSAPMNGHCFAENGPSQKSSLPPLLIPPSENLGPHEEDQVVCGFKKLTVNGVCASTPPLTPIKNSPSLFPCAPLCERGSRPLPPLPISEALSLDDTDCEVEFLTSSDTDFLLEDSTLSDFKYDVPGRRSFRGCGQINYAYFDTPAVSAADLSYVSDQNGGVPDPNPPPPQTHRRLRRSHSGPAGSFNKPAIRISNCCIHRASPNSDEDKPEVPPRVPIPPRPVKPDYRRWSAEVTSSTYSDEDRPPKVPPREPLSPSNSRTPAPKSLPSYLNGVMPPTQSFAPDPKYVSSKALQRQNSEGSASKVPCILPIIENGKKVSSTHYYLLPERPPYLDKYEKFFREAEETNGGAQIQPLPADCGISSATEKPDSKTKMDLGGHVKRKHLSYVVSP [S334A], the “effect of a mutation on the interaction” value is “decreasing interaction”.
Same read-out and setting: the same measure for MSIAGVAAQEIRVPLKTGFLHNGRAMGNMRKTYWSSRSEFKNNFLNIDPITMAYSLNSSAQERLIPLGHASKSAPMNGHCFAENGPSQKSSLPPLLIPPSENLGPHEEDQVVCGFKKLTVNGVCASTPPLTPIKNSPSLFPCAPLCERGSRPLPPLPISEALSLDDTDCEVEFLTSSDTDFLLEDSTLSDFKYDVPGRRSFRGCGQINYAYFDTPAVSAADLSYVSDQNGGVPDPNPPPPQTHRRLRRSHSGPAGSFNKPAIRISNCCIHRASPNSDEDKPEVPPRVPIPPRPVKPDYRRWSAEVTSSTYSDEDRPPKVPPREPLSPSNSRTPSPKSLPSYLNGVMPPTQSFAPDPKYVSSKALQRQNAEGSASKVPCILPIIENGKKVSSTHYYLLPERPPYLDKYEKFFREAEETNGGAQIQPLPADCGISSATEKPDSKTKMDLGGHVKRKHLSYVVSP [S369A]: “decreasing interaction”.
On the same count and under the same terms, with MSIAGVAAQEIRVPLKTGFLHNGRAMGNMRKTYWSSRSEFKNNFLNIDPITMAYSLNSSAQERLIPLGHASKSAPMNGHCFAENGPSQKSSLPPLLIPPSENLGPHEEDQVVCGFKKLTVNGVCASTPPLTPIKNSPSLFPCAPLCERGSRPLPPLPISEALSLDDTDCEVEFLTSSDTDFLLEDSTLSDFKYDVPGRRSFRGCGQINYAYFDTPAVSAADLSYVSDQNGGVPDPNPPPPQTHRRLRRSHSGPAGSFNKPAIRISNCCIHRASPNSDEDKPEVPPRVPIPPRPVKPDYRRWAAEVTSSTYSDEDRPPKVPPREPLSPSNSRTPSPKSLPSYLNGVMPPTQSFAPDPKYVSSKALQRQNSEGSASKVPCILPIIENGKKVSSTHYYLLPERPPYLDKYEKFFREAEETNGGAQIQPLPADCGISSATEKPDSKTKMDLGGHVKRKHLSYVVSP [S302A] the entry was “decreasing interaction”.

In another test the parent is B1. To be noted: with chk1_human CHEK1, O14757. This is another data set of the same source.
With MSIAGVAAQEIRVPLKTGFLHNGRAMGNMRKTYWSSRSEFKNNFLNIDPITMAYSLNSSAQERLIPLGHASKSAPMNGHCFAENGPSQKSSLPPLLIPPSENLGPHEEDQVVCGFKKLTVNGVCASTPPLTPIKNSPSLFPCAPLCERGSRPLPPLPISEALSLDDTDCEVEFLTSSDTDFLLEDSTLSDFKYDVPGRRSFRGCGQINYAYFDTPAVSAADLSYVSDQNGGVPDPNPPPPQTHRRLRRAHSGPAGSFNKPAIRISNCCIHRASPNSDEDKPEVPPRVPIPPRPVKPDYRRWSAEVTSSTYSDEDRPPKVPPREPLSPSNSRTPSPKSLPSYLNGVMPPTQSFAPDPKYVSSKALQRQNSEGSASKVPCILPIIENGKKVSSTHYYLLPERPPYLDKYEKFFREAEETNGGAQIQPLPADCGISSATEKPDSKTKMDLGGHVKRKHLSYVVSP [S249A], the “effect of a mutation on the interaction” value is recorded as “decreasing interaction”.
MSIAGVAAQEIRVPLKTGFLHNGRAMGNMRKTYWSSRSEFKNNFLNIDPITMAYSLNSSAQERLIPLGHASKSAPMNGHCFAENGPSQKSSLPPLLIPPSENLGPHEEDQVVCGFKKLTVNGVCASTPPLTPIKNSPSLFPCAPLCERGSRPLPPLPISEALSLDDTDCEVEFLTSSDTDFLLEDSTLSDFKYDVPGRRSFRGCGQINYAYFDTPAVSAADLSYVSDQNGGVPDPNPPPPQTHRRLRRSHAGPAGSFNKPAIRISNCCIHRASPNSDEDKPEVPPRVPIPPRPVKPDYRRWSAEVTSSTYSDEDRPPKVPPREPLSPSNSRTPSPKSLPSYLNGVMPPTQSFAPDPKYVSSKALQRQNSEGSASKVPCILPIIENGKKVSSTHYYLLPERPPYLDKYEKFFREAEETNGGAQIQPLPADCGISSATEKPDSKTKMDLGGHVKRKHLSYVVSP [S251A]: the “effect of a mutation on the interaction” value is recorded as “decreasing interaction”.
